Results from the supplement of paper PMC9876800.

Test system: peptide library, one residue held at a place counted from the S/T acceptor
Experiment: relative phosphorylation of the sub-library (ratio to the mean residue at this position); higher = residue favoured
Settings: human
Procedure, shortened: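 Purified recombinant kinases, either human or orthologue constructs, were incubated in 384-well plates with biotinylated degenerate peptide sub-libraries. Each sub-library fixed one residue at one position around a central Ser/Thr. Peptides at 50 μM and 50 μM ATP spiked with γ-32P-ATP were used for 90 min under kinase-specific conditions, and spots on streptavidin membranes were phosphorimaged and quantified by densitometry. Relative sub-library phosphorylation is expressed as a ratio to the mean residue at that position.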

Chain of CDK9, construct: Full length (P50750 whole entry, looked up): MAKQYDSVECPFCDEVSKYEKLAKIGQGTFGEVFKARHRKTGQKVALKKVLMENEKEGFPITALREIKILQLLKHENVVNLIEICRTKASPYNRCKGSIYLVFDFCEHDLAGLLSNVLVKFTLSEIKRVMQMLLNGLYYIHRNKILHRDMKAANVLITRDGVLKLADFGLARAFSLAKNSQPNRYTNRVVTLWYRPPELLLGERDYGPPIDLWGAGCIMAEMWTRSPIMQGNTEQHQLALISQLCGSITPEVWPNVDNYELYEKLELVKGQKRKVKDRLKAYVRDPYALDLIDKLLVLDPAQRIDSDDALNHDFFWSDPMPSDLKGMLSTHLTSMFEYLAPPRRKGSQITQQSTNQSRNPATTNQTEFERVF
Chain of ACVR2A, construct: aa162-end (P27037 162-513, looked up): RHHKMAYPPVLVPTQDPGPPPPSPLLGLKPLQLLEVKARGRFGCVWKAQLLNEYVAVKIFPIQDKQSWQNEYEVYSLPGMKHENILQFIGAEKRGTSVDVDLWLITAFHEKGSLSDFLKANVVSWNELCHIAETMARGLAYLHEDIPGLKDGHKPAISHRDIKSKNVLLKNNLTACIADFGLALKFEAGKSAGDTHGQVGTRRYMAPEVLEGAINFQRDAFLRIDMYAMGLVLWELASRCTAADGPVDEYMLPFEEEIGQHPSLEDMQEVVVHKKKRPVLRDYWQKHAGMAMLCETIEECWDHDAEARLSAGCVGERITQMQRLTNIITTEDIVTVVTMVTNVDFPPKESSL
Chain of CDK16, construct: aa107-end (Q00536 107-496, looked up): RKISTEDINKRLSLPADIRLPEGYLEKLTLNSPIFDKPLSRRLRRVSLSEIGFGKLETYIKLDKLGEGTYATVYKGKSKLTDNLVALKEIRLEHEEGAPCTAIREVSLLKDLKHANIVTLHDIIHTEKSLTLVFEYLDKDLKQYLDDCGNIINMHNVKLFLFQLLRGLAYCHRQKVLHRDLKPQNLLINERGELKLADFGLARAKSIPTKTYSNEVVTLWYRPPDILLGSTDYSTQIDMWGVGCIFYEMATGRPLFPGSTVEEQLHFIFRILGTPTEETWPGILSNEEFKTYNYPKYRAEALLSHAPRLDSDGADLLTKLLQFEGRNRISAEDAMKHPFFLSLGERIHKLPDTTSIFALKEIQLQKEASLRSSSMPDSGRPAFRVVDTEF
Chain of CDK6, construct: Full length (Q00534 whole entry, looked up): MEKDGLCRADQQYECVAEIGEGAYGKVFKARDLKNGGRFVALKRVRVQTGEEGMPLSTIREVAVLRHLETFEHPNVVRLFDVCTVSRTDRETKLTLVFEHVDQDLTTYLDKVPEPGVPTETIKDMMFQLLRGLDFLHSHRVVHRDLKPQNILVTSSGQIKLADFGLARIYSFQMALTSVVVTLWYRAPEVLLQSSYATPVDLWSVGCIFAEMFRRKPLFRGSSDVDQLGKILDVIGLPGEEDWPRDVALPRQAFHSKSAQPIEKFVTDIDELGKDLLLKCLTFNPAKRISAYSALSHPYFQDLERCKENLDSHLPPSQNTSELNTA

ACVR2A, construct: aa162-end (from UniProt P27037)
relative phosphorylation
Settings | at +1 | at +2 | at +3 | at +4 | at -1 | at -2 | at -3 | at -4 | at -5
A fixed | 0.647 | 1.12 | 0.899 | 0.847 | 0.822 | 0.53 | 0.912 | 0.943 | 0.992
D fixed | 1.68 | 1.24 | 1.06 | 1.09 | 1.23 | 4.3 | 1.79 | 1.77 | 1.51
E fixed | 3.21 | 1.03 | 1.48 | 1.09 | 1.29 | 5.23 | 2.05 | 1.48 | 1.34
F fixed | 0.932 | 0.983 | 1.09 | 0.89 | 1.17 | 0.504 | 0.877 | 1.05 | 1.02
G fixed | 0.575 | 1.36 | 1.01 | 0.924 | 0.57 | 0.5 | 1.11 | 0.933 | 0.818
H fixed | 0.7 | 1.12 | 1 | 0.974 | 1.07 | 0.487 | 0.9 | 0.937 | 0.969
I fixed | 1.18 | 0.915 | 0.942 | 0.957 | 0.804 | 0.454 | 0.855 | 0.895 | 1.06
K fixed | 0.327 | 0.805 | 0.785 | 0.896 | 0.532 | 0.354 | 0.603 | 0.69 | 0.868
L fixed | 0.873 | 0.674 | 1.04 | 0.87 | 1.27 | 0.431 | 0.814 | 0.884 | 1.01
M fixed | 0.996 | 0.879 | 1 | 1.13 | 1.44 | 0.399 | 0.875 | 0.98 | 0.886
N fixed | 0.638 | 0.863 | 0.891 | 0.946 | 0.816 | 0.676 | 0.854 | 0.852 | 0.911
P fixed | 0.34 | 0.989 | 1.14 | 1.29 | 0.676 | 0.321 | 0.854 | 0.791 | 0.706
Q fixed | 1.23 | 1 | 0.848 | 1.05 | 0.9 | 0.769 | 0.863 | 0.82 | 0.732
R fixed | 0.416 | 0.935 | 0.658 | 0.835 | 0.577 | 0.504 | 0.783 | 0.777 | 0.808
V fixed | 1.32 | 0.999 | 0.963 | 0.877 | 1.1 | 0.502 | 0.928 | 0.924 | 1.02
W fixed | 0.961 | 0.983 | 1.08 | 1.36 | 1.39 | 0.54 | 1 | 1.28 | 1.37
Y fixed | 0.971 | 1.11 | 1.11 | 0.985 | 1.33 | 0.498 | 0.935 | 0.996 | 0.982
pThr fixed | 4.65 | 1.1 | 0.882 | 1.2 | 1.37 | 1.01 | 2.05 | 1.37 | 1.33
pTyr fixed | 2.81 | 0.877 | 1.39 | 1 | 1.81 | 0.721 | 1.66 | 1.16 | 1.29

CDK6, construct: Full length (from UniProt Q00534)
relative phosphorylation
Settings | at +1 | at +2 | at +3 | at +4 | at -1 | at -2 | at -3 | at -4 | at -5
A fixed | 0.249 | 0.659 | 0.594 | 0.709 | 0.827 | 0.895 | 1.21 | 1.02 | 1.04
D fixed | 0.113 | 0.259 | 0.209 | 0.504 | 0.48 | 0.316 | 0.476 | 0.884 | 0.866
E fixed | 0.11 | 0.238 | 0.174 | 0.424 | 0.473 | 0.406 | 0.66 | 0.859 | 0.909
F fixed | 0.353 | 0.811 | 0.529 | 0.795 | 0.908 | 1.1 | 0.978 | 0.852 | 0.979
G fixed | 1.39 | 0.731 | 0.681 | 1.15 | 1.29 | 0.73 | 1.42 | 1.04 | 1.23
H fixed | 0.295 | 1.24 | 1.06 | 1.23 | 1.11 | 1.16 | 1.2 | 1.11 | 1.18
I fixed | 0.308 | 1.04 | 0.461 | 0.746 | 0.493 | 0.878 | 0.932 | 0.757 | 0.669
K fixed | 0.303 | 1.83 | 3.16 | 1.64 | 1.23 | 0.788 | 1.03 | 1.35 | 1.57
L fixed | 0.344 | 1.1 | 0.458 | 0.785 | 1.14 | 1.29 | 1.08 | 0.85 | 0.773
M fixed | 0.328 | 1.01 | 0.581 | 0.891 | 1.28 | 1.5 | 1.03 | 0.867 | 0.736
N fixed | 0.211 | 0.885 | 0.747 | 0.957 | 0.746 | 0.783 | 0.827 | 1.19 | 1.04
P fixed | 11.6 | 0.494 | 0.862 | 1.01 | 1.26 | 2.2 | 1.15 | 1.07 | 1.24
Q fixed | 0.258 | 0.905 | 0.702 | 1.03 | 1.04 | 0.894 | 0.865 | 1.05 | 0.99
R fixed | 0.31 | 3.29 | 5 | 2.44 | 1.78 | 0.969 | 1.33 | 1.15 | 1.31
V fixed | 0.315 | 0.956 | 0.513 | 0.724 | 0.64 | 0.835 | 0.886 | 0.673 | 0.68
W fixed | 0.285 | 0.665 | 0.58 | 1.13 | 1.08 | 1.06 | 0.92 | 1.25 | 0.721
Y fixed | 0.24 | 0.887 | 0.688 | 0.829 | 1.23 | 1.19 | 1.02 | 1.05 | 1.06
pThr fixed | 0.326 | 0.502 | 0.433 | 0.336 | 0.25 | 0.548 | 0.725 | 0.882 | 0.934
pTyr fixed | 0.339 | 0.36 | 0.486 | 0.349 | 0.324 | 0.798 | 0.81 | 1.12 | 1.34

CDK9, construct: Full length (from UniProt P50750)
relative phosphorylation
Settings | at +1 | at +2 | at +3 | at +4 | at -1 | at -2 | at -3 | at -4 | at -5
A fixed | 0.39 | 0.956 | 0.702 | 0.931 | 1.2 | 1.52 | 1.17 | 1.19 | 1.13
D fixed | 0.167 | 0.493 | 0.429 | 0.79 | 0.328 | 0.322 | 0.339 | 0.607 | 0.572
E fixed | 0.212 | 0.478 | 0.409 | 0.913 | 0.34 | 0.392 | 0.382 | 0.661 | 0.514
F fixed | 0.398 | 0.953 | 0.593 | 1.01 | 0.974 | 0.919 | 1.01 | 1.13 | 1.25
G fixed | 0.943 | 1.35 | 0.85 | 1.13 | 1.34 | 1.12 | 1.82 | 1.14 | 1.01
H fixed | 0.286 | 1.57 | 3 | 1.45 | 1.02 | 0.973 | 1.12 | 1.13 | 1.27
I fixed | 0.306 | 0.708 | 0.547 | 0.871 | 0.353 | 0.956 | 0.902 | 0.868 | 0.858
K fixed | 0.328 | 1.24 | 0.828 | 0.752 | 1.51 | 0.91 | 0.939 | 1.1 | 1.09
L fixed | 0.404 | 0.736 | 0.453 | 0.791 | 0.98 | 0.95 | 0.868 | 0.914 | 0.82
M fixed | 0.347 | 0.769 | 0.478 | 0.893 | 1.75 | 1.53 | 0.963 | 0.969 | 0.853
N fixed | 0.217 | 1.18 | 0.79 | 0.983 | 0.82 | 0.805 | 0.896 | 0.895 | 0.876
P fixed | 11.4 | 0.652 | 1.38 | 0.984 | 1.14 | 1.32 | 1.15 | 1.06 | 1.01
Q fixed | 0.285 | 0.928 | 0.987 | 0.928 | 1.08 | 0.796 | 0.813 | 0.804 | 0.833
R fixed | 0.327 | 2.31 | 2.45 | 0.973 | 1.78 | 1.23 | 1.68 | 1.18 | 1.23
V fixed | 0.388 | 0.734 | 0.545 | 0.84 | 0.559 | 0.821 | 0.939 | 0.855 | 0.892
W fixed | 0.331 | 0.95 | 1.28 | 1.57 | 0.836 | 1.32 | 0.958 | 1.31 | 1.46
Y fixed | 0.315 | 0.999 | 1.28 | 1.19 | 0.992 | 1.12 | 1.05 | 1.19 | 1.33
pThr fixed | 0.374 | 0.622 | 0.475 | 0.979 | 0.284 | 0.487 | 0.615 | 0.723 | 0.719
pTyr fixed | 0.379 | 0.536 | 1.18 | 1.2 | 0.558 | 0.526 | 0.607 | 0.838 | 0.714

CDK16, construct: aa107-end (from UniProt Q00536)
relative phosphorylation
Settings | at +1 | at +2 | at +3 | at +4 | at -1 | at -2 | at -3 | at -4 | at -5
A fixed | 0.223 | 0.675 | 0.758 | 0.72 | 1.18 | 1.28 | 1.24 | 0.912 | 1.03
D fixed | 0.152 | 0.587 | 0.335 | 0.457 | 0.539 | 0.439 | 0.692 | 0.863 | 0.745
E fixed | 0.15 | 0.385 | 0.316 | 0.305 | 0.491 | 0.464 | 0.839 | 0.817 | 0.699
F fixed | 0.155 | 0.368 | 1.03 | 0.593 | 0.499 | 0.512 | 0.478 | 0.455 | 0.542
G fixed | 0.947 | 0.572 | 0.702 | 1.38 | 2.12 | 0.887 | 2.02 | 0.951 | 0.854
H fixed | 0.218 | 1.25 | 0.82 | 1.16 | 0.92 | 0.797 | 1.27 | 1.08 | 1.68
I fixed | 0.147 | 0.455 | 0.842 | 0.588 | 0.26 | 0.834 | 0.433 | 0.852 | 0.625
K fixed | 0.253 | 3.26 | 0.872 | 2.54 | 1.37 | 0.617 | 0.915 | 2.31 | 2.51
L fixed | 0.177 | 1.05 | 2.59 | 0.679 | 0.582 | 1.18 | 0.93 | 1.15 | 1.16
M fixed | 0.168 | 0.663 | 1.97 | 0.757 | 0.722 | 1.12 | 0.666 | 0.755 | 0.722
N fixed | 0.225 | 1.17 | 0.964 | 1.09 | 1.16 | 1.08 | 1.19 | 1.78 | 1.42
P fixed | 13.1 | 0.696 | 1.45 | 0.842 | 1.77 | 3.72 | 1.93 | 1.11 | 0.908
Q fixed | 0.246 | 1.26 | 0.973 | 1.06 | 1.28 | 0.988 | 1.06 | 1.01 | 0.95
R fixed | 0.23 | 2.63 | 0.996 | 2.89 | 1.67 | 0.715 | 0.973 | 1.02 | 1.08
V fixed | 0.177 | 0.676 | 0.937 | 0.66 | 0.399 | 0.941 | 0.643 | 0.598 | 0.657
W fixed | 0.221 | 0.702 | 0.877 | 0.687 | 0.991 | 0.83 | 0.85 | 0.675 | 0.902
Y fixed | 0.17 | 0.608 | 0.564 | 0.587 | 1.04 | 0.588 | 0.871 | 0.653 | 0.509
pThr fixed | 0.435 | 0.648 | 0.998 | 0.332 | 0.397 | 0.764 | 0.87 | 0.767 | 0.657
pTyr fixed | 0.801 | 0.513 | 1.11 | 0.42 | 0.49 | 0.698 | 0.925 | 0.584 | 0.723
